In US20250339466A1 (published 2025):
Residue numbers refer to the chain shown, from its start.

T1: human BCMA on BCMA overexpressing CHO cells (human, UniProt Q02223 1-184)
T1 construct: also called hBCMA CHO; Hu BCMA (FACS)
T1 chain: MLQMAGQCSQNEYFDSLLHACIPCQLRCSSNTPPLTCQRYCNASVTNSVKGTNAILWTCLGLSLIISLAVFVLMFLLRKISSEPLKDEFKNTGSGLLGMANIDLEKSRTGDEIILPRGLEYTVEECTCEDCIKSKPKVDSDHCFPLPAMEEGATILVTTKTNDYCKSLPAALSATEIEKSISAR

B1: anti-BCMA scFv clone from phage display, periplasmic extract (Table 3, third row; VH printed there as SEQ ID NO: 10, VL as SEQ ID NO: 27) (scFv)
chain: EVQLVESGGDVVQPGRSLRLSCAASGFTFSSYAIHWVRQAPGKGLEWVAVTWHDGSNKYYAESVMGRFTISRDNSKNTLYLHMNSLRAEDTGVYYCARAKFGEPQYFQHWGQGTTVTVSSDIVMTQSPSFLSASVGDRVTITCRASQGISSYLAWYQQKPGKAPKLLIYAASTLQSGVPSRFSGSGSGTEFTLTISSLQPEDFATYYCQQLNSYPFTFGPGTKVDIK
B2: anti-BCMA scFv clone from phage display, periplasmic extract (Table 3, first row; VH printed there as SEQ ID NO: 26, VL as SEQ ID NO: 23) (scFv)
chain: B1 chain with E1Q, V2I, Q3T, V5R, T115L, F216W, P220Q
B3: anti-BCMA scFv clone from phage display, periplasmic extract (Table 3, first row; VH printed there as SEQ ID NO: 26, VL as SEQ ID NO: 23) (scFv, V domains shown, part only)
VH: QITLRESGGDVVQPGRSLRLSCAASGFTFSSYAIHWVRQAPGKGLEWVAVTWHDGSNKYYAESVMGRFTISRDNSKNTLYLHMNSLRAEDTGVYYCARAKFGEPQYFQHWGQGTLVTVSS
VL: DIVMTQSPSFLSASVGDRVTITCRASQGISSYLAWYQQKPGKAPKLLIYAASTLQSGVPSRFSGSGSGTEFTLTISSLQPEDFATYYCQQLNSYPWTFGQGTKVDIK
modifications: linker not stated
B4: anti-BCMA scFv clone from phage display, periplasmic extract (Table 3, second row; VH printed there as SEQ ID NO: 26, VL as SEQ ID NO: 25) (scFv, V domains shown, part only)
VH: B3 VH
VL: B3 VL with S30N, S31N, K42I, S63G, N92K, W96F, Q100P, D105E
modifications: linker not stated
B5: anti-BCMA scFv clone from phage display, periplasmic extract (Table 3, third row; VH printed there as SEQ ID NO: 10, VL as SEQ ID NO: 27) (scFv, V domains shown, part only)
VH: B3 VH with Q1E, I2V, T3Q, R5V, L115T
VL: B3 VL with W96F, Q100P
modifications: linker not stated
B6: anti-BCMA scFv clone from phage display, periplasmic extract (Table 3, second row; VH printed there as SEQ ID NO: 26, VL as SEQ ID NO: 25) (scFv)
chain: QITLRESGGDVVQPGRSLRLSCAASGFTFSSYAIHWVRQAPGKGLEWVAVTWHDGSNKYYAESVMGRFTISRDNSKNTLYLHMNSLRAEDTGVYYCARAKFGEPQYFQHWGQGTLVTVSSDIVMTQSPSFLSASVGDRVTITCRASQGINNYLAWYQQKPGIAPKLLIYAASTLQSGVPSRFGGSGSGTEFTLTISSLQPEDFATYYCQQLKSYPFTFGPGTKVEIK

How the values were obtained:
[1] = target: T2, Bio-cyBCMA-His (biotinylated cynomolgus BCMA with His tag) (cynomolgus, UniProt A0A2K5UD97 1-53, Biotinylated (site not stated); C- or N-terminal His tag not carried in the letters); assay: ELISA, periplasmic extract of scFv on biotinylated cynomolgus BCMA-His
T2 construct: not shown: biotin label
T2 sequence (A0A2K5UD97 entry or part of it limits assumed, form in doubt): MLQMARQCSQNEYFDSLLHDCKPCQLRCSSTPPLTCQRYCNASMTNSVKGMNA

[2] = target: T1, human BCMA on BCMA overexpressing CHO …; assay: flow cytometry, periplasmic extract of scFv on cells with human BCMA
[3] = target: Bio-huBCMA-His (biotinylated human BCMA with His tag) (human) (UniProt Q02223); assay: ELISA, periplasmic extract of scFv on biotinylated human BCMA-His

Binder | PE Elisa Bio-cyBCMA-His [1] | PE FACS % Binding Hu BCMA [2] [%] | PE ELISA Bio-huBCMA-His [3]
B1 | 0.126 | 47.2 | 
B2 | 0.147 | 89 | 
B3 |  |  | 1.1
B4 |  |  | 1.11
B5 |  |  | 0.516
B6 | 0.122 | 54.6 | 
